Numbering of substitutions follows the chain as printed.
Assays:
[1] = molecular target: T1, CDCP1 expressed on the surface of human cells (PC3, H1299, H2009 and others) (human, UniProt Q9H5V8 30-836); assay: immunoprecipitation: antibody 24 (5 µg/ml) added to intact PC3 cells (80 min, 4 °C), Western blot
T1 construct: Endogenous CDCP1 of human cell lines; also called CDCP1 antigen expressed on PC3 cells; CDCP1 expressing cells

[2] = molecular target: T1, CDCP1 expressed on the surface of human …; assay: flow cytometry on H1299 cells (NSCLC), anti-human IgG Fc R-PE detection
Protocol: (§1) Binding was evaluated on three human cancer cell lines, PC3 (prostate cancer), H1299 (Non-small cell lung cancer), and H2009 (lung adenocarcinoma). To accomplish this, adherent cells were first dissociated with Cell Dissociation Buffer (Life Technologies #13150-016), pelleted by centrifugation, and resuspended by FACS buffer (PBS-CMF, 3% FBS, 0.1% weight/volume (w/v) sodium azide). […] Following a thirty-minute incubation on ice in dark, the cells were washed twice, combined with eFluor 660 Fixable Viability Dye (eBioscience #65-0864-18), and fixed (BD Cytofix, BD Biosciences #554655). Stained cells were acquired on a LSR Fortessa instrument using BD FACSDiva Software. Background subtracted gMFI of viable cells was determined using FlowJo software and plotted using Graphpad Prism software to generate EC₅₀ s (FIGS. 26A and 26B).

[3] = molecular target: T2, recombinant human CDCP1 extracellular domain (CDCP1-ECD) (human, UniProt Q9H5V8 30-663); assay: SPR (Biacore T200), antibody captured on anti-human IgG, CDCP1-ECD injected; experiment 2
T2 construct: Expressed in HEK293 and chemically biotinylated for the phage selection; also called human CDCP1 ECD; human CDCP1-ECD
Protocol: (§2) Specifically, the binding kinetics of anti-CDCP1 antibodies against recombinant human, cynomologus monkey and mouse CDCP1-ECD were determined using surface plasmon resonance (SPR) and a Biacore T200 instrument (GE Healthcare). An anti-human IgG antibody was amine coupled onto a CM5 carboxymethylated dextran sensor chip surface (GE Healthcare), using the manufacturer's recommendations, to densities of approximately 10,000-13,000 response units (RU). Each anti-CDCP1 antibody was diluted to 0.5 μg/mL in 10 mM HEPES pH 7.4, 0.15 M NaCl, 3 mM EDTA, 0.05% P-20 (HBS-EP+) and captured for about 20-23 seconds at a flow rate of 10 μL/min. […] The sensorchip surface was regenerated with three 30 second pulses of 3M MgCl₂ at a flow rate of 50 μL/minute. All injections used HBS-EP+ as both the running and sample buffer and were performed at 25° C. with a data collection rate of 1 Hz. Sensorgrams were double referenced by using both a control surface and buffer injections. Rate constants were determined by fitting the data to a 1:1 model with Biacore T200 evaluation software v3.0 and the equation KD=kd/kₐ.

[4] = molecular target: T3, recombinant cynomolgus monkey CDCP1 extracellular domain (cynomolgus monkey, UniProt A0A2K5VLA8 30-663); assay: as above
T3 construct: range 30-663; also called cyno CDCP1 ECD; cynomolgus monkey CDCP1-ECD
Protocol: as §2

[5] = molecular target: T1, CDCP1 expressed on the surface of human …; assay: flow cytometry on H2009 cells (lung adenocarcinoma), anti-human IgG Fc R-PE detection
Protocol: as §1

[6] = molecular target: T1, CDCP1 expressed on the surface of human …; assay: flow cytometry on PC3 cells (prostate cancer), anti-human IgG Fc R-PE detection
Protocol: as §1

[7] = molecular target: T2, recombinant human CDCP1 extracellular …; assay: SPR (Biacore T200), antibody captured on anti-human IgG, CDCP1-ECD injected
Protocol: as §2

[8] = molecular target: T3, recombinant cynomolgus monkey CDCP1 …; assay: as above
Protocol: as §2

[9] = molecular target: T1, CDCP1 expressed on the surface of human …; assay: competition FACS on PC3 cells; competitor (reporter) biotinylated CP13E10
[10] = molecular target: T1, CDCP1 expressed on the surface of human …; assay: competition FACS on PC3 cells; competitor: biotinylated CP13E10 reporter at 1.5 µg/mL, streptavidin-PE detection
Protocol: For this competition FACS assay procedure, PC3 cells were detached from flasks using cell dissociation buffer (Gibco, catalog number 13151-014), washed once with ice-cold FACS buffer (PBS-CMF pH 7.2+3% FBS+0.1% sodium azide) and 2.5×10⁵ cells in 50 μl buffer were added to each well in 96-well V-bottom plates (Corning catalog number 3894). […] Next, the cells were washed twice with FACS buffer. Streptavidin-PE (Invitrogen/eBioscience catalog number 12-4317-87) diluted 1:200 was added and incubated for 30 minutes at room temperature. The cells were washed twice with FACS buffer and were fixed on ice for 15 minutes by adding 100 μl of BD Cytofix (BD Biosciences catalog number 554655) to each well. The cells were washed twice with FACS buffer.

[11] = molecular target: T2, recombinant human CDCP1 extracellular …; assay: competition ELISA of Example 7 on CDCP1-ECD (biotinylated CP13E10-54HC-89LC reporter as described there; the reporter is not named on the sheet)
Protocol: The CDCP1-ECD protein was diluted to 1 μg/ml in PBS-CMF pH 7.2, 100 μl was added to each well of the plate, and the plate was incubated overnight at 4° C. The contents of the plate were discarded and then the plate was blocked with PBS-CMF pH7.2+0.02% casein for 3 hours at room temperature. […] The wells were washed four times with PBS-CMF pH7.2+0.03% tween-20. Streptavidin-HRP (catalog #7100-05, Southern Biotech, (Birmingham, Alabama) diluted 1:10,000 was added and incubated for 30 minutes at room temperature. The wells were washed four times with PBS-CMF pH 7.2+0.03% tween-20 and then TMB (BioFx) was added. The reaction developed for 5 to 10 minutes and was then quenched with 0.18 N H₂SO₄. The absorbance at 450 nm was determined and the results are shown in FIG. 7.

[12] = molecular target: T2, recombinant human CDCP1 extracellular …; assay: SPR, Biacore T200
Protocol: as §2

[13] = molecular target: T3, recombinant cynomolgus monkey CDCP1 …; assay: SPR, Biacore T200
Protocol: as §2

[14] = molecular target: T1, CDCP1 expressed on the surface of human …; assay: immunoprecipitation: antibody 76 (20 ng/ml) added to intact PC3 cells (80 min, 4 °C), Western blot

T3 sequence (A0A2K5VLA8 entry or part of it): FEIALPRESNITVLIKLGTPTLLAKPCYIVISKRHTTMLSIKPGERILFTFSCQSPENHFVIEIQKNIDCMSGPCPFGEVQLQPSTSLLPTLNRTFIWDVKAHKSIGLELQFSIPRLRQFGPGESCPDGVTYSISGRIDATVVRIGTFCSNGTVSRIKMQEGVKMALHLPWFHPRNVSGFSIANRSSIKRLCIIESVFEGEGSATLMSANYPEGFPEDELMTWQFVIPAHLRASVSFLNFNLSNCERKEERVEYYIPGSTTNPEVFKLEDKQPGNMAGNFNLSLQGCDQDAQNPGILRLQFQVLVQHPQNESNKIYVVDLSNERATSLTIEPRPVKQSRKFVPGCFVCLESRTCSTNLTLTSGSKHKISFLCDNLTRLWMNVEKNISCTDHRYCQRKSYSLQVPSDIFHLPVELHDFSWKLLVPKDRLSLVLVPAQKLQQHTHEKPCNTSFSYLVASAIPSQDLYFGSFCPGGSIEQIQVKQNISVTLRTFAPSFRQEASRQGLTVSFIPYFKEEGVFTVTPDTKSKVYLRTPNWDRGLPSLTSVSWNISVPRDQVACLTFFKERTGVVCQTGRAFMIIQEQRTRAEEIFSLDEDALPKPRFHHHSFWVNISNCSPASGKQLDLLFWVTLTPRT

B1: antibody 24 (antibody, human IgG1, kappa, V domains shown)
VH: QVQLVESGGGVVQPGRSLRLSCAASGFTFSSYGMHWVRQAPGKGLEWVAVISYDGSNKYYADSVKGRFTISRDNSKNTLYLQMNSLRAEDTAVYYCARGVGLPDIWGQGTMVTVSS
VL: EIVMTQSPDTLSLSPGERATLSCRASQKIYYSYLAWYQQKPGQAPRLLISGASTRASDISDRFSGGGSGTDFTLTINSLESEDAAVYYCQQYDSLPVTFGRGTKLEIKR
notes: Human IgG1, kappa
Question: Does B1 bind [1]?
Answer: Result: binds

B2: CP13E10-54HC-89LC (antibody, human IgG1, kappa, V domains shown)
VH: EVQLVQSGAEVKKPGASVKVSCKASGYTFTSYYMHWVRQAPGQGLEWMGIINPSGGSTSYAQKFQGRVTMTRDTSTSTVYMELSSLRSEDTAVYYCARDGELRHFDHLLDYHYYMDVWGQGTTVTVSS
VL: EIVLTQSPATLSLSPGERATLSCRASQSVGSYLAWYQQRPGQAPRLLIYDASNRATGIPARFSGSGSGTDFTLTISSLEPEDFAVYYCQQRAQEFTFGQGTKVEIKR
notes: Human IgG1, kappa; Alexa Fluor 647 conjugated in the internalization assay; also called CP13E10-54VH-89VL
Question: Which results are given for B2?
Answer: EC50 [2]: 0.73 nM; Kd [3]: 42 nM; Kd [4]: 63.4 nM; EC50 [5]: 0.77 nM; EC50 [6]: 1.69 nM; Kd [7]: 52.9 nM; Kd [8]: 79.9 nM

B3: CP13E10-34 variant (antibody, V domains shown)
VH: B2 VH with E101V, Q120K
VL: B2 VL with Q93N, E94V
Question: How did the “fold lower binding relative to parental CP13E10” value [9] turn out when B3 was run?
Answer: Its value is greater than 7 fold.

Question: And the Kd [7]?
Answer: The Kd was 607 nM.

B4: CP13E10-54 variant (antibody, human IgG1, kappa, V domains shown)
VH: B2 VH
VL: B2 VL with Q93N, E94V
Question: Which “IC50 (read off the curve)” value [10] does the source give for B4 here?
Answer: The value was roughly 9 nM.

B5: CP13E10-54HCv13-89LCv1 (antibody, human IgG1, kappa, V domains shown)
VH: B2 VH with G100A
VL: B2 VL with L4M, R39K, E79Q
Question: With B5 as the binder, how does the “IC50 (read off the curve)” value [11] read?
Answer: The value was roughly 5 nM.

B6: CP13E10-291 (antibody, human IgG1, kappa, V domains shown)
VH: B2 VH with H107Q, L108V, L109Y, D110N
VL: B2 VL with Q93N, E94V
notes: Human IgG1, kappa
Question: What does the source list for B6?
Answer: fold increase in affinity relative to CP13E10-34 [12]: > 200 fold; fold increase in binding relative to CP13E10-WT [13]: > 70 fold; Kd [7]: 2.9 nM; Kd [8]: 3.12 nM

B7: CP13E10 (antibody, human IgG1, kappa, V domains shown)
VH: B2 VH with E101V, H104Y, H107W, H112Y, Q120K
VL: B2 VL with Q93N, E94V
notes: Human IgG1, kappa; Heavy chain can be prepared with or without the C-terminal lysine; also called CP13E10-WT; parental CP13E10 antibody
Question: Which “IC50 (read off the curve)” value [10] does the source give for B7 here?
Answer: The value was roughly 7 nM.

Question: And the Kd [7]?
Answer: Its Kd is 219 nM.

Question: And the Kd [8]?
Answer: Its Kd is 232 nM.

B8: antibody 76 (antibody, human IgG1, lambda, V domains shown)
VH: QVQLVQSGAEVKKPGSSVKVSCKASGGTFSSYAISWVRQAPGQGLEWMGGIIPIFGTANYAQKFQGRVTITADKSTSTAYMELSSLRSEDTAVYYCARDPTYFDWTRRGYYYMDVWGKGTTVTVSS
VL: SYELTQPPSVSVSPGQTARITCSGDALPKKYAFWYQQKSGQAPVLVIYEDSKRPSGIPEKFSGSSSGTMATLTISGAQVEDEADYYCYSTDSSDNPRGVFGGGTKLTVLG
notes: Human IgG1, lambda
Question: Does B8 bind [14]?
Answer: Result: binds
